# ± gives the standard deviation of the averaged measurements.
# Legend:
# Saccharomyces cerevisiae [1] = assay: protein stability index of tFT-peptide fusion (C-terminal peptide) (PSI (0-1 scale)); higher = more stable (slower turnover); settings: genetic background: wild type; temperature: 30 C
# Saccharomyces cerevisiae [2] = assay: as above
# Description: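 MPS profiling in S. cerevisiae of the tFT-X12 degron library: putative degron peptides plus stable controls, 12 aa, fused to the C-terminus of a sfGFP-mCherry timer. Cells are FACS-sorted into 8 mCherry/sfGFP bins and deep-sequenced. PSI runs from 0 (unstable) to 1 (stable). Backgrounds are wild type, das1Δ and doa10Δ at 30 °C, and wild type, das1Δ, cdc34-1 and cdc53-1 at 37 °C; 2-3 technical replicates each.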
# [3] = genetic background: cdc34-1, temperature: 37 C
# [4] = genetic background: cdc53-1, temperature: 37 C
# [5] = genetic background: das1 deletion, temperature: 30 C
# [6] = genetic background: das1 deletion, temperature: 37 C
# [7] = genetic background: doa10 deletion, temperature: 30 C
# [8] = genetic background: wild type, temperature: 30 C
# [9] = genetic background: wild type, temperature: 37 C
# 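Note: PSI is a weighted mean of sequencing reads over stability bins, variants kept only with over 10 reads, mCherry proximal and sfGFP distal, peptide attached via GGGS linker.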
Sequence,protein stability index (Saccharomyces cerevisiae [1]),other results
RVWTTVFIIRAT,0.333 ± 0.062,protein stability index (Saccharomyces cerevisiae [2]; [3]): 0.595 ± 0.032; protein stability index (Saccharomyces cerevisiae [2]; [4]): 0.609 ± 0.055; protein stability index (Saccharomyces cerevisiae [2]; [5]): 0.493 ± 0.03; protein stability index (Saccharomyces cerevisiae [2]; [6]): 0.6146 ± 0.0043; protein stability index (Saccharomyces cerevisiae [2]; [7]): 0.216 ± 0.023; protein stability index (Saccharomyces cerevisiae [2]; [8]): 0.229 ± 0.024; protein stability index (Saccharomyces cerevisiae [2]; [9]): 0.424 ± 0.023
VLRLLARRHAMV,0.308 ± 0.017,protein stability index (Saccharomyces cerevisiae [2]; [3]): 0.577 ± 0.036; protein stability index (Saccharomyces cerevisiae [2]; [4]): 0.6735 ± 0.002; protein stability index (Saccharomyces cerevisiae [2]; [5]): 0.614 ± 0.015; protein stability index (Saccharomyces cerevisiae [2]; [6]): 0.689 ± 0.013; protein stability index (Saccharomyces cerevisiae [2]; [7]): 0.148 ± 0.013; protein stability index (Saccharomyces cerevisiae [2]; [8]): 0.145 ± 0.028; protein stability index (Saccharomyces cerevisiae [2]; [9]): 0.251 ± 0.02
ELNERRKRLVTN,0.304 ± 0.011,protein stability index (Saccharomyces cerevisiae [2]; [3]): 0.623 ± 0.052; protein stability index (Saccharomyces cerevisiae [2]; [4]): 0.737 ± 0.01; protein stability index (Saccharomyces cerevisiae [2]; [5]): 0.6615 ± 0.0035; protein stability index (Saccharomyces cerevisiae [2]; [6]): 0.718 ± 0.0088; protein stability index (Saccharomyces cerevisiae [2]; [7]): 0.13 ± 0.021; protein stability index (Saccharomyces cerevisiae [2]; [8]): 0.142 ± 0.012; protein stability index (Saccharomyces cerevisiae [2]; [9]): 0.268 ± 0.033
SSLRATLLIRAV,–,protein stability index (Saccharomyces cerevisiae [2]; [3]): 0.543 ± 0.023; protein stability index (Saccharomyces cerevisiae [2]; [4]): 0.564 ± 0.011; protein stability index (Saccharomyces cerevisiae [2]; [5]): 0.44 ± 0.019; protein stability index (Saccharomyces cerevisiae [2]; [6]): 0.584 ± 0.0032; protein stability index (Saccharomyces cerevisiae [2]; [7]): 0.352 ± 0.025; protein stability index (Saccharomyces cerevisiae [2]; [8]): 0.371 ± 0.032; protein stability index (Saccharomyces cerevisiae [2]; [9]): 0.5171 ± 0.0041
FVVVVVWVSRGL,–,protein stability index (Saccharomyces cerevisiae [2]; [3]): 0.174 ± 0.0059; protein stability index (Saccharomyces cerevisiae [2]; [4]): 0.399 ± 0.05; protein stability index (Saccharomyces cerevisiae [2]; [5]): 0.214 ± 0.036; protein stability index (Saccharomyces cerevisiae [2]; [6]): 0.423 ± 0.008; protein stability index (Saccharomyces cerevisiae [2]; [7]): 0.172 ± 0.029; protein stability index (Saccharomyces cerevisiae [2]; [8]): 0.196 ± 0.048; protein stability index (Saccharomyces cerevisiae [2]; [9]): 0.383 ± 0.023
APGLLPPCLLVV,–,protein stability index (Saccharomyces cerevisiae [2]; [3]): 0.374 ± 0.033; protein stability index (Saccharomyces cerevisiae [2]; [4]): 0.387 ± 0.013; protein stability index (Saccharomyces cerevisiae [2]; [5]): 0.307 ± 0.045; protein stability index (Saccharomyces cerevisiae [2]; [6]): 0.458 ± 0.014; protein stability index (Saccharomyces cerevisiae [2]; [7]): 0.263 ± 0.0047; protein stability index (Saccharomyces cerevisiae [2]; [8]): 0.3 ± 0.02; protein stability index (Saccharomyces cerevisiae [2]; [9]): 0.389 ± 0.0066
GGRREWCRGGGV,–,protein stability index (Saccharomyces cerevisiae [2]; [3]): 0.635 ± 0.11; protein stability index (Saccharomyces cerevisiae [2]; [4]): 0.746 ± 0.034; protein stability index (Saccharomyces cerevisiae [2]; [5]): 0.555 ± 0.029; protein stability index (Saccharomyces cerevisiae [2]; [6]): 0.695 ± 0.03; protein stability index (Saccharomyces cerevisiae [2]; [7]): 0.544 ± 0.0089; protein stability index (Saccharomyces cerevisiae [2]; [8]): 0.546 ± 0.015; protein stability index (Saccharomyces cerevisiae [2]; [9]): 0.708 ± 0.03
VLLCGRMVVVEW,–,protein stability index (Saccharomyces cerevisiae [2]; [3]): 0.0831 ± 0.0095; protein stability index (Saccharomyces cerevisiae [2]; [4]): 0.163 ± 0.0037; protein stability index (Saccharomyces cerevisiae [2]; [5]): 0.163 ± 0.01; protein stability index (Saccharomyces cerevisiae [2]; [6]): 0.143 ± 0.011; protein stability index (Saccharomyces cerevisiae [2]; [7]): 0.196 ± 0.032; protein stability index (Saccharomyces cerevisiae [2]; [8]): 0.153 ± 0.014; protein stability index (Saccharomyces cerevisiae [2]; [9]): 0.132 ± 0.021
RWCLVWGGVWGV,–,protein stability index (Saccharomyces cerevisiae [2]; [3]): 0.593 ± 0.03; protein stability index (Saccharomyces cerevisiae [2]; [4]): 0.68 ± 0.025; protein stability index (Saccharomyces cerevisiae [2]; [5]): 0.494 ± 0.029; protein stability index (Saccharomyces cerevisiae [2]; [6]): 0.674 ± 0.02; protein stability index (Saccharomyces cerevisiae [2]; [7]): 0.486 ± 0.013; protein stability index (Saccharomyces cerevisiae [2]; [8]): 0.5 ± 0.017; protein stability index (Saccharomyces cerevisiae [2]; [9]): 0.645 ± 0.011
WVFYAVRWRTWN,–,protein stability index (Saccharomyces cerevisiae [2]; [3]): 0.254 ± 0.015; protein stability index (Saccharomyces cerevisiae [2]; [4]): 0.44 ± 0.0092; protein stability index (Saccharomyces cerevisiae [2]; [5]): 0.311 ± 0.037; protein stability index (Saccharomyces cerevisiae [2]; [6]): 0.54 ± 0.017; protein stability index (Saccharomyces cerevisiae [2]; [7]): 0.0632 ± 0.0063; protein stability index (Saccharomyces cerevisiae [2]; [8]): 0.066 ± 0.018; protein stability index (Saccharomyces cerevisiae [2]; [9]): 0.061 ± 0.0063
RWRECVVWGVWG,0.663 ± 0.0096,–
YINTKKKKINKT,0.655 ± 0.014,–
TSRPLHEQTVSP,0.677 ± 0.025,–
FNPRIGGDCRSA,0.678 ± 0.031,–
ERKQRKREQRDR,0.6609 ± 0.0038,–
FPSPLLPYPLLP,0.747 ± 0.052,–
PHRLPPLPNPLH,0.693 ± 0.082,–
VGVLRTSRASPH,0.646 ± 0.031,–
ALRFLISCRLLD,0.62622 ± 0.00026,–
PGDSALVLVTPQ,0.703 ± 0.069,–
SSCLRQGVGACG,0.702 ± 0.018,–
VGVKLVVEAIRR,0.6322 ± 0.0039,–
IRPNLERKIKVR,0.6226 ± 0.0014,–
PHAHTAPPPVPP,0.601 ± 0.017,–

Sequence,protein stability index (Saccharomyces cerevisiae [1]),other results
KKEPEKEQQNKE,0.746 ± 0.097,–
ARSHSPPPPRPP,0.6723 ± 0.0029,–
APPRLSPLPPPP,0.6848 ± 0.0065,–
LLLVLGLSLVGL,0.564 ± 0.035,–
RVRRWGSSTLVG,0.676 ± 0.041,–
SLPLPNTPVPPI,0.723 ± 0.081,–
SIYIEKERKMIV,0.686 ± 0.025,–
VWCVWGVGGLWA,0.648 ± 0.025,–
LLSSPPSPGFSL,0.748 ± 0.12,–
HLFNLVRIRTDL,0.703 ± 0.049,–
KTRHMQGNRVDS,0.603 ± 0.045,–
VVVGGVGGFFGC,0.754 ± 0.015,–
GRPKNSYNQNSG,0.747 ± 0.013,–
AGVVRGGRGVGI,0.728 ± 0.025,–
PSSAQKNPNPNT,0.701 ± 0.073,–
RAPDFYPTHPLA,0.701 ± 0.057,–
VGAPPCYPVSRL,0.74 ± 0.24,–
FVPRFPGTTINS,0.681 ± 0.049,–
ISRDNSQITRNM,0.68 ± 0.015,–
PPSPPPPLPPPA,0.6897 ± 0.0041,–
KNKKNKKKKTMK,0.685 ± 0.041,–
HPAPGSPPAAHL,0.734 ± 0.073,–
LSVQFVSQHTRV,0.664 ± 0.024,–
PFLGHCPPTPPP,0.732 ± 0.044,–

Sequence,protein stability index (Saccharomyces cerevisiae [1]),other results
RAPRSPPPPALA,0.77114 ± 0.00071,–
LFLYPFCVGGFL,0.714 ± 0.016,–
VIYERDSLRGGI,0.753 ± 0.038,–
LLPHALHVPFHL,0.707 ± 0.1,–
VPTCFPLSPSPP,0.714 ± 0.016,–
KKKKKKKQKSKK,0.704 ± 0.057,–
PLGCFQQDVYEK,0.733 ± 0.089,–
WGVCWRVWGFGC,0.677 ± 0.074,–
LSALQQSSAPSI,0.691 ± 0.057,–
PPPSHPLSPPRP,0.717 ± 0.24,–
FLVFRFPFGFSC,0.566 ± 0.025,–
LPPLPPSPPPLP,0.685 ± 0.024,–
VAAGGTVSPSSQ,0.653 ± 0.057,–
NMQRKSRNQIID,0.707 ± 0.074,–
KKKNKKQNKAKK,0.6396 ± 0.0023,–
PPPSPTSPPPPS,0.69 ± 0.018,–
VGAGRGKWRGGG,0.6591 ± 0.0013,–
NKTKKKKKKKRG,0.659 ± 0.061,–
FSPPTLSLPGPI,0.721 ± 0.0083,–
GWTLIFGRTSEG,0.678 ± 0.023,–
DSSFLPHLRLAP,0.689 ± 0.053,–
KERKEKKKKKNK,0.7227 ± 0.0045,–
FSSLHLTHELLS,0.664 ± 0.061,–
RKATGVLQVQDY,0.749 ± 0.14,–

Sequence,protein stability index (Saccharomyces cerevisiae [1]),other results
HQSISLSGAMLT,0.65 ± 0.0088,–
ICRGLTVPGVAI,0.612 ± 0.0095,–
SRRVSLGLSVDS,0.662 ± 0.074,–
VGGCLFQLSSGY,0.683 ± 0.035,–
AFRISLSCPISL,0.619 ± 0.056,–
RATTNKRIRVEL,0.704 ± 0.011,–
FLFADVSSPSSI,0.725 ± 0.038,–
PSRSLSPSPPFS,0.691 ± 0.066,–
PRSPPPLPPSSL,0.705 ± 0.029,–
PPPDSPPLPAPP,0.659 ± 0.033,–
PPPPPPPPLPPP,0.5856 ± 0.0041,–
VEHILQGVKYRR,0.717 ± 0.098,–
SILVAGVSAGRC,0.669 ± 0.021,–
SASGARVEARMH,0.6435 ± 0.0017,–
EGREGGGRGEVL,–,protein stability index (Saccharomyces cerevisiae [2]; [3]): 0.455 ± 0.011; protein stability index (Saccharomyces cerevisiae [2]; [4]): 0.589 ± 0.04; protein stability index (Saccharomyces cerevisiae [2]; [5]): 0.471 ± 0.029; protein stability index (Saccharomyces cerevisiae [2]; [6]): 0.496 ± 0.03; protein stability index (Saccharomyces cerevisiae [2]; [7]): 0.482 ± 0.024; protein stability index (Saccharomyces cerevisiae [2]; [8]): 0.479 ± 0.011; protein stability index (Saccharomyces cerevisiae [2]; [9]): 0.472 ± 0.013
HTWALERVCSLD,0.687 ± 0.066,–
SPPPPRAPTPPP,0.698 ± 0.035,–
VYYDERLGDGHS,0.866 ± 0.021,–
PPPFLQPLPASP,0.729 ± 0.045,–
VRCWGRGSGVGD,0.666 ± 0.036,–
SARFALSQAPPI,0.814 ± 0.12,–
EENLLYLLYVEC,0.544 ± 0.016,–
LFPLISPLQSER,0.737 ± 0.026,–
SAPYLSTTLSVK,0.671 ± 0.011,–

Sequence,protein stability index (Saccharomyces cerevisiae [1]),other results
SIVSQGISDLGR,0.656 ± 0.046,–
SSVYLRRSCDHD,0.699 ± 0.017,–
RGHKATNICHSV,0.721 ± 0.042,–
PLPTPHPHKPYQ,0.771 ± 0.025,–
RNCELQSLSSTL,0.732 ± 0.036,–
AELVVRNGVGGI,0.831 ± 0.077,–
MYPAYNRVRFEL,0.657 ± 0.032,–
LRFWCFGDVCPV,0.754 ± 0.057,–
RREDWQEKRYGL,0.761 ± 0.083,–
LVRFRADEPRGG,0.688 ± 0.058,–
DKNDGNHKKKKN,0.702 ± 0.017,–
SSFNSCQFVLSY,0.563 ± 0.011,–
DRKWSPGSGVVD,0.696 ± 0.051,–
LSPLPTPLRPNS,0.68 ± 0.025,–
VEVKEKLKLWSH,0.691 ± 0.021,–
AVNLWSRFFDLP,0.686 ± 0.052,–
RAALEAPGCIQV,0.73316 ± 3e-05,–
SRRRSPARPSLP,0.7462 ± 0.0045,–
RCSNWFVGFCPF,0.733 ± 0.062,–
GGFRWLGGSAPA,0.727 ± 0.072,–
SGCVLCLCCYMV,0.666 ± 0.015,–
ERGREVVSRGVQ,0.724 ± 0.014,–
DREGIELHKNKD,0.658 ± 0.0072,–
GSDEVGTGWGRL,0.669 ± 0.13,–

# — the supplement of paper PMC10724198
